Positions count from the first letter of the chain named. In names and notes the source's numbering stands.
Experiments:
[1] = biological target: T1, DR4 (TRAIL-R1) Fc, recombinant receptor from R&D Systems (UniProt O00220 24-239, limits assumed); experiment: SPR, Biacore 3000, 25 C, receptor amine-coupled to CM5 chip, ligand 2 ug/ml
T1 construct: also called soluble TRAIL-R1 Fc; not shown: Fc part of the bought Fc fusion
Experimental: (§1) Binding experiments were performed using a surface plasmon resonance-based biosensor Biacore 3000 (Biacore AB, Uppsala, Sweden), at 25° C. Recombinant receptors were ordered from R&D systems (R&D systems, Minneapolis, Minn., USA). Immobilization of the receptors on the sensor surface of a Biacore CM5 sensor chip was performed following a standard amine coupling procedure according to the manufacturer's instructions. A reference surface was generated simultaneously under the same conditions but without receptor injection and used as a blank to correct for instrument and buffer artifacts. […] Binding of ligands to the receptors was monitored in real-time. The receptor/sensor surface was regenerated using 3 M sodium acetate pH 5.2 injections.

[2] = biological target: T1, DR4 (TRAIL-R1) Fc, recombinant receptor …; experiment: SPR (Biacore): clarified E. coli extract diluted 1:50 injected over immobilised DR4, DR5, DcR1 and RANK; bars are the response as a fraction of the DR5 response
Experimental: (§2) Control extracts of BL21 (DE3) culture without an over-expression plasmid and of a BL21 (DE3) culture with plasmid over-expressing SH3 domain were also injected.

murine RANK (receptor) = biological target: T2, murine RANK (receptor) (murine, UniProt O35305 31-214, limits assumed); experiment: SPR (Biacore): clarified E. coli extract diluted 1:50 injected over immobilised DR4, DR5, DcR1 and RANK; bars are the response as a fraction of the DR4 response
T2 construct: Control surface in the SPR screening
T2 sequence (looked up): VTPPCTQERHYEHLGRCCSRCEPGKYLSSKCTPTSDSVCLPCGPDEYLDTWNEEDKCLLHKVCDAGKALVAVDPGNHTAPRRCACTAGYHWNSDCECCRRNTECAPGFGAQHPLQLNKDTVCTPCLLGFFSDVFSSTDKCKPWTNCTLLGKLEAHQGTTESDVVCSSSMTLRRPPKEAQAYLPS
Experimental: as §2

[3] = biological target: T1, DR4 (TRAIL-R1) Fc, recombinant receptor …; experiment: SPR, receptor Fc immobilised, ligand 0.1 to 250 nM
Experimental: (§3) Binding experiments were performed using a surface plasmon resonance-based biosensor Biacore 3000 (Biacore AB, Uppsala, Sweden), at 37° C. Recombinant receptors were ordered from R&D systems (R&D systems, Minneapolis, Minn., USA). […] Receptors were coated at a level of ~600-800 RU. […] Between injections the receptor/sensor surface was regenerated using 30 µl of 3 M sodium acetate pH 5.2.
(§4) Combinations between the stability variants and selectivity variants described above can be made, giving variants with enhanced stability and altered selectivity/specificity. […] Mutants were tested for receptor binding and biological activity as described in Examples 1, 2 and 3.

[4] = biological target: T3, DR5 (TRAIL-R2) Fc, recombinant receptor from R&D Systems (UniProt O14763 54-182, limits assumed); experiment: SPR, receptor Fc immobilised, ligand 0.1 to 250 nM
T3 construct: also called soluble TRAIL-R2 Fc; immobilized TRAIL-R2 Fc; not shown: Fc part of the bought Fc fusion
T3 sequence (O14763 54-182 limits assumed): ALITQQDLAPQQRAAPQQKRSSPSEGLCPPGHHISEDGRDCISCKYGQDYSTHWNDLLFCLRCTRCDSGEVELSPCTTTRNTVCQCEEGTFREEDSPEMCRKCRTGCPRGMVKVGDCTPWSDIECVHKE
Experimental: as §3, §4

[5] = biological target: T1, DR4 (TRAIL-R1) Fc, recombinant receptor …; experiment: SPR (Biacore 3000, 25 C): ligand at 2 ug/ml injected over receptor amine-coupled to a CM5 chip
Experimental: as §1

[6] = biological target: T1, DR4 (TRAIL-R1) Fc, recombinant receptor …; experiment: SPR (Biacore 3000, 37 C): purified ligand at 60 nM over immobilised receptor Fc
[7] = biological target: T1, DR4 (TRAIL-R1) Fc, recombinant receptor …; experiment: SPR, Biacore 3000, 37 C, receptor Fc on CM5 chip, ligand 0.1-250 nM
Experimental: as §3

[8] = biological target: T3, DR5 (TRAIL-R2) Fc, recombinant receptor …; experiment: as above
Experimental: as §3

[9] = biological target: T4, DcR1 (TRAIL-R3) Fc, recombinant receptor (UniProt O14798 26-221, limits assumed); experiment: SPR, Biacore 3000, 37 C, receptor Fc on CM5 chip
T4 construct: not shown: Fc part of the Fc fusion
T4 sequence (looked up): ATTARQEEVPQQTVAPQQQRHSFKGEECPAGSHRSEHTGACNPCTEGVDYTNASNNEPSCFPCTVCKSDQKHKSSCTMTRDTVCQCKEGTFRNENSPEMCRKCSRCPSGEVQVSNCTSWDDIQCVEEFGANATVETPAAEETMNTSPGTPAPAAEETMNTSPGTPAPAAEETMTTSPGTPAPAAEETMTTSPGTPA
Experimental: as §3

[10] = biological target: T1, DR4 (TRAIL-R1) Fc, recombinant receptor …; experiment: SPR, Biacore 3000, 37 C, receptor on chip, 1:1 Langmuir global fit, preliminary apparent Kd
Experimental: (§5) Binding of the purified mutants was assessed in real time using surface plasmon resonance on a Biacore 3000 with a sensor chip as described above. […] Measurements performed at 37° C. to allow increased $koff$ and dissociation was monitored for 20 min. Measured $kon$ and $koff$ rates were used to calculate apparent K_d values for the mutants for the respective receptors. A global fit procedure was used and a 1:1 Langmuir interaction model.

[11] = biological target: T3, DR5 (TRAIL-R2) Fc, recombinant receptor …; experiment: as above
Experimental: as §5

[12] = biological target: T1, DR4 (TRAIL-R1) Fc, recombinant receptor …; experiment: SPR (Biacore), E. coli extracts diluted 1:50 over immobilised receptor
Experimental: as §2

T1 sequence (O00220 24-239 limits assumed): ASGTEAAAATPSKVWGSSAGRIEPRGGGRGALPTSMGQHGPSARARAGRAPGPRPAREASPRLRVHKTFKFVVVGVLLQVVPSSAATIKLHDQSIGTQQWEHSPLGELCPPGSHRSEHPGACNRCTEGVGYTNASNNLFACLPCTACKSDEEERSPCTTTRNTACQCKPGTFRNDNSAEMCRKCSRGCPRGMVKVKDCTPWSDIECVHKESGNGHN

B1: TRAIL mutant C1 (M1 + M3: E194I, I196S, S225A) (ligand)
chain: VRERGPQRVAAHITGTRGRSNTLSSPNSKNEKALGRKINSWESSRSGHSFLSNLHLRNGELVIHEKGFYYIYSQTYFRFQIESKENTKNDKQMVQYIYKYTSYPDPILLMKAARNSCWSKDAEYGLYSIYQGGIFELKENDRIFVSVTNEHLIDMDHEASFFGAFLVG
notes: Combination of M1 and M3 on soluble TRAIL 114-281
**Q.** Does B1 bind [1]?
**A.** binds

B2: TRAIL mutant D218R (ligand)
chain: B1 chain with I81E, S83I, D105R, A112S
**Q.** Does B2 bind [2]?
**A.** binds

**Q.** Does B2 bind (murine RANK (receptor))?
**A.** no binding

B3: TRAIL mutant D269HM1 (D269H combined with M1: E194I, I196S) (ligand)
chain: B1 chain with A112S, D156H
**Q.** B3 was tested. Which “fold reduction in binding relative to wild-type TRAIL” value [3] did it give?
**A.** > 8 fold

**Q.** And the “fold improvement in binding relative to wild-type TRAIL” value [4]?
**A.** > 8 fold

B4: TRAIL mutant R149D (ligand)
chain: B1 chain with R36D, I81E, S83I, A112S
**Q.** Does B4 bind [2]?
**A.** binds

B5: TRAIL mutant G160K (ligand)
chain: B1 chain with G47K, I81E, S83I, A112S
**Q.** Does B5 bind [2]?
**A.** binds

**Q.** Does B5 bind (murine RANK (receptor))?
**A.** no binding

B6: TRAIL mutant M3 (S225A) (ligand)
chain: B1 chain with I81E, S83I
notes: Stability mutant built on soluble TRAIL 114-281
**Q.** Does B6 bind [1]?
**A.** binds

B7: TRAIL mutant E155M (ligand)
chain: B1 chain with E42M, I81E, S83I, A112S
**Q.** Does B7 bind [2]?
**A.** binds

B8: TRAIL mutant I220M (ligand)
chain: B1 chain with I81E, S83I, I107M, A112S
**Q.** Does B8 bind [2]?
**A.** binds

B9: TRAIL mutant D218Y (ligand)
chain: B1 chain with I81E, S83I, D105Y, A112S
**Q.** Does B9 bind [2]?
**A.** binds

**Q.** Does B9 bind (murine RANK (receptor))?
**A.** no binding

B10: TRAIL mutant M1 (E194I, I196S) (ligand)
chain: B1 chain with A112S
notes: as for B6
**Q.** Does B10 bind [5]?
**A.** binds

B11: TRAIL mutant D269HT214R (ligand)
chain: B1 chain with I81E, S83I, T101R, A112S, D156H
notes: also called T214R-D269H
**Q.** Does B11 bind [6]?
**A.** no binding (tested: 60 nM)

B12: TRAIL mutant R149H (ligand)
chain: B1 chain with R36H, I81E, S83I, A112S
**Q.** Does B12 bind [2]?
**A.** binds

B13: TRAIL mutant D269K (ligand)
chain: B1 chain with I81E, S83I, A112S, D156K
**Q.** For B13, which “fold reduction in binding relative to wild-type TRAIL” value [7] is on record?
**A.** > 15 fold

**Q.** What about the “fold improvement in binding relative to wild-type TRAIL” value [8] of the same binder?
**A.** > 10 fold

B14: TRAIL mutant D269R (ligand)
chain: B1 chain with I81E, S83I, A112S, D156R
**Q.** For B14, which “fold reduction in binding relative to wild-type TRAIL” value [7] is on record?
**A.** > 15 fold

**Q.** What about the “fold improvement in binding relative to wild-type TRAIL” value [8] of the same binder?
**A.** > 10 fold

B15: TRAIL mutant R191ED267R (ligand)
chain: B1 chain with R78E, I81E, S83I, A112S, D154R
**Q.** Does B15 bind [6]?
**A.** no binding (tested: 60 nM)

B16: TRAIL mutant D269H (ligand)
chain: B1 chain with I81E, S83I, A112S, D156H
**Q.** Which results are given for B16?
**A.** fold decrease in binding compared to wild-type TRAIL [9]: ~10 fold; fold reduction in binding relative to wild-type TRAIL [7]: > 15 fold; fold improvement in binding relative to wild-type TRAIL [8]: > 10 fold; Kd [10]: 0.6 nM; Kd [11]: < 0.4 nM

B17: TRAIL mutant M2 (D203I, Q205M, Y237F) (ligand)
chain: B1 chain with I81E, S83I, D90I, Q92M, A112S, Y124F
notes: as for B6
**Q.** Does B17 bind [5]?
**A.** binds

B18: TRAIL mutant G131R (ligand)
chain: B1 chain with G18R, I81E, S83I, A112S
**Q.** Does B18 bind [2]?
**A.** binds

**Q.** Does B18 bind (murine RANK (receptor))?
**A.** no binding

B19: TRAIL mutant R130E (ligand)
chain: B1 chain with R17E, I81E, S83I, A112S
**Q.** Which results are given for B19?
**A.** binding result [2]: binds; binding result (murine RANK (receptor)): no binding

B20: TRAIL mutant E195R (ligand)
chain: B1 chain with I81E, E82R, S83I, A112S
**Q.** Does B20 bind [12]?
**A.** binds

B21: TRAIL mutant D218F (ligand)
chain: B1 chain with I81E, S83I, D105F, A112S
**Q.** Does B21 bind [2]?
**A.** binds

B22: TRAIL mutant D269HE195R (ligand)
chain: B1 chain with I81E, E82R, S83I, A112S, D156H
**Q.** With B22 as the binder, how does the “fold reduction in binding relative to wild-type TRAIL” value [7] read?
**A.** > 15 fold

**Q.** And the “fold improvement in binding relative to wild-type TRAIL” value [8]?
**A.** > 10 fold

B23: TRAIL mutant I220H (ligand)
chain: B1 chain with I81E, S83I, I107H, A112S
**Q.** Does B23 bind [2]?
**A.** binds

B24: TRAIL mutant G160M (ligand)
chain: B1 chain with G47M, I81E, S83I, A112S
**Q.** With B24 as the binder, how does the Kd [10] read?
**A.** 0.4 nM

**Q.** What about the Kd [11] of the same binder?
**A.** 0.5 nM

**Q.** Does B24 bind (murine RANK (receptor))?
**A.** no binding

Reference: patent publication US7994281 (EUROPEAN MOLECULAR BIOLOGY LABORATORY, dated 2011)
